Reference: the supplement of paper PMC10567573

B1: C9orf25 (parent)
chain: LARKGSLKNGSMGSPVNQQPKKNN

Variants of: B1
Experiment: protein stability index of a GFP-peptide fusion (GPS, HEK-293T) (PSI 1-6); higher = more stable
Conditions: c terminus: a fixed tail appended
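Further: lentivirally expressed fusions sorted by FACS into six bins by GFP to DsRed ratio, PSI derived from sequencing read proportions per bin multiplied by bin number.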

Protein stability index: each site, then its substitutions
K8: A 4.55 | E 4.29 | Q 4.84 | N 5.17 | D 4.2 | T 4.53 | L 4.12 | M 4.45 | Y 4.11 | V 4.43 | G 5 | S 4.73 | H 4.7 | W 4.1 | C 4.32 | P 4.71 | F 4.42 | R 4.57 | I 4.76
G10: C 4.33 | H 4.67 | Q 4.34 | N 4.99 | K 4.35 | M 4.85 | I 4.76 | Y 4.35 | F 4.25 | R 4.12 | P 4.86 | A 4.83 | D 4.61 | L 4.65 | T 4.81 | S 4.14 | E 5.04 | W 3.89 | V 4
S14: R 4.23 | C 4.06 | E 4.75 | N 4.81 | V 4.77 | A 4.73 | T 4.42 | D 4.96 | P 5.02 | F 4.3 | M 4.97 | Y 4.25 | G 4.8 | I 4.62 | H 4.96 | L 4.5 | W 4.13 | K 4.83 | Q 4.74
M12: D 5.06 | F 4.56 | G 4.49 | A 4.42 | P 4.84 | T 4.74 | E 5.29 | K 5.15 | R 4.7 | S 4.94 | V 4.98 | Q 4.4 | I 4.42 | H 4.42 | N 4.43 | C 4.58 | W 4.11 | Y 4.4 | L 4.44
Q19: N 4.72 | K 4.22 | S 4.89 | A 4.92 | Y 4.58 | M 4.74 | E 4.73 | R 4.45 | H 4.69 | D 4.78 | V 4.86 | G 5.02 | C 4.68 | W 3.79 | T 4.74 | F 4.5 | I 4.85 | P 4.39 | L 4.67
V16: K 4.14 | T 4.75 | L 4.64 | W 4.01 | I 4.79 | S 4.68 | R 4.69 | F 3.91 | D 4.85 | N 4.4 | Y 3.87 | M 4.62 | E 5.39 | G 4.75 | Q 5 | C 4.23 | P 4.89 | A 4.69 | H 5.1
Q18: H 4.82 | R 4 | G 4.37 | D 5.17 | I 4.52 | T 5.01 | N 4.59 | V 4.64 | P 4.55 | F 4.4 | L 4.32 | Y 4.17 | K 5.08 | M 4.64 | C 4.6 | A 4.74 | S 4.97 | E 5.18 | W 3.67
K21: V 4.32 | D 5.25 | C 3.98 | I 4.28 | W 2.95 | A 4.7 | S 4.3 | Y 4 | R 4.82 | T 4.39 | E 4.87 | L 4.25 | H 4.9 | F 4.07 | G 4.25 | M 4.21 | N 4.65 | Q 4.48 | P 4.18
N9: I 4.64 | T 4.78 | P 4.36 | K 4.17 | H 4.63 | D 5.27 | V 4.42 | C 4.46 | W 3.21 | L 3.67 | S 4.94 | R 4.43 | F 4.21 | E 5.29 | G 4.74 | A 4.6 | Q 4.92 | Y 4.64 | M 4.18
S6: A 4.33 | I 4.72 | V 4.29 | H 4.43 | W 4.23 | L 4.12 | P 4.59 | R 3.99 | D 5.1 | N 4.69 | Y 4.89 | K 4.37 | G 4.64 | T 4.76 | M 4.38 | Q 4.76 | E 5.15 | F 4.36 | C 4.05
P15: S 4.26 | Q 5.26 | V 4.62 | A 4.42 | T 4.95 | W 4.27 | F 4.2 | G 5 | L 4.59 | D 5.45 | R 3.8 | E 4.53 | N 4.42 | C 4.48 | Y 4.4 | H 4.24 | I 4.66 | M 4.66 | K 4.34
S11: Y 4.35 | M 4.22 | D 4.8 | R 4.61 | T 4.81 | L 4.19 | A 4.44 | G 5.27 | Q 4.29 | C 4.5 | W 4.45 | V 4.71 | H 4.15 | E 4.96 | N 4.88 | P 4.67 | F 4.15 | I 4.41 | K 4.7
G13: D 4.64 | N 4.97 | Q 4.99 | R 4.36 | Y 4.44 | E 5.23 | L 4.92 | C 5.04 | H 4.58 | P 4.33 | M 4.44 | S 3.98 | T 4.79 | F 4.06 | V 4.69 | W 3.66 | I 4.72 | A 4.79 | K 4.28
L7: K 5.32 | I 4.56 | H 4.76 | A 4.51 | G 4.57 | W 3.97 | R 4.14 | C 5.02 | Q 5.04 | N 4.55 | D 4.01 | F 4.2 | M 4.66 | S 4.83 | V 3.39 | E 3.63 | T 4.71 | Y 4.17 | P 4.71
K4: Y 4.13
G5: E 4.82 | A 4.5 | R 4.34 | Y 3.27 | T 4.53 | K 5.05 | L 3.55 | M 4.06 | C 4.29 | W 4.06 | N 4.07 | V 4.26 | Q 4.6 | H 4.49 | F 4 | P 4.48 | I 3.99 | D 4.58 | S 4.8
K22: F 3.56 | I 3.8 | A 4.51 | E 5.05 | M 4.49 | H 4.02 | D 4.21 | L 3.81 | G 4.54 | C 4.49
P20: W 4.1 | V 5.07 | E 4.59 | G 4.5 | D 5.23 | H 3.98 | R 4.25 | L 4.11 | N 4.67 | F 4.03 | A 4.54 | Y 4.32 | K 4.36 | M 4.56 | I 4.65 | T 3.92 | C 4.54 | S 4.34 | Q 4.72
N17: R 4.47 | A 4.25 | L 4.64 | K 4.47 | P 4.95 | F 4.31 | M 4.83 | D 5.12 | W 3.62 | Q 4.74 | S 4.54 | I 4.72 | V 4.6 | Y 4.27 | C 4.53 | E 5.07 | G 4.27 | H 5.11 | T 3.98
